Data as given in the RNAGym collection of RNA variant scans (doi:10.1073/pnas.2313332121).

B1: TPR t1 (parent)
chain: GACCAAUCUGCCCUCAGAGCUCGAGAACAUCUUCGGAUGCAGAGGAGGCAGGCUUCGGUGGCGCGAUAGCGCCAACGUCCUCAACCUCCAAUGCAUCCCACCACAUGAUGAUGCCUGAAGAGCCUUGGUUUUUUG

Variants of: B1
Experiment: polymerase ribozyme fitness, log enrichment relative to wild type (log ratio); higher = more active; in vitro selection for triplet polymerase activity
In short: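 Mutant libraries for each subunit of a heterodimeric triplet polymerase ribozyme were made by PCR and then transcribed. Each library underwent one round of in vitro selection in triplicate: annealing with a biotinylated primer, the partner subunit and triplets, frozen incubation at −7 °C, gel excision of extended constructs, streptavidin-bead capture and RT-PCR. Input and output libraries were Illumina-sequenced, and only genotypes with ≥10 input reads and ≥1 read per output were kept. Fitness is the logarithm, base 2, of genotype enrichment over wild-type enrichment, computed from inverse-variance-weighted replicate averages.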

Variant | polymerase ribozyme fitness (log ratio)
GACCAAUCUGCCGUCAGAGCUCGAGAACAUCUUCGGAUGCAGAGGAGGCAGGCUUCGGUGGCUCGAUAGCGCCAACGUCCUCAACCUCCAAUGCAUCCCACCACAUGAUGAUGCCUGAAGAGACUUGGUUUUUUG [C13G G63U C123A] | -0.659
GACCAAUCUGCCGUCAGAGCUCGAGAACAUCUUCGGAUGCAGAGGAGGCAGUCUUCGGUGGCGCGAUGGCGCCAACGUCCUCAACCUCCAAUGCAUCCCACCACAUGAUGCUGCCUGAAGAGCUUUGGUUUUCUG [C13G G52U A68G A111C C124U U133C] | -4.14
GACCAAUCUGCCGUCAGAGCUCGAGAACAUCUUCGGAUGCAGAGGAGGCACGCUUCGGUGGCGCGAUAGCGCCAACGUCCUCAACCUCCAAUGCAUCCCACCAUAUGAUGAUGCCUGAACAGCCUUGGUUUUUUG [C13G G51C C104U G120C] | -4.18
GACCAAUCUGCCUUCAGAGCUCGAGGACAUCUUCGGAUGCAGAGGAGGCAGGCUUCGAUGGCGCGAUAGCGCCAACGUCCUCAACCUCCAAUGCAUCCCACCACAUGAUGAUGCCUGAAGAGCCUUGGUUUUUUG [C13U A26G G58A] | -3.1
GACCAAUCUGCCUUCAGUGCUCGAGAACAUCUUCGGAUGCACAGGAGGCAGGCUUCGGUGGCGCGAUAGCGCCAACGUCCUCAACCACCAAUGCAUCCCACCACAUGAUGAUGCCUGAAGAGCCUUGGUUUUUUG [C13U A18U G42C U87A] | -0.601
GACCAAUCUGCCGUCAGAGCUCGAGAACAUCUUCGGAUGCAUAGGAGGCAGGCUUCGGUGGCGCGAUAGCGCCAACGUCCUCAACCUCCAAUGCAUCCCACCACAUGAUGAUGCCUGAAGAGCCUUGGUUUUUUG [C13G G42U] | -2.84
GACCAAUCUGCCGUCAGAGCUCGAGAACAUCUUCGGAUGCAGAGGAGGCAGGCUUCGGUUGCGCGAUAGCGCCAACGUCCUCAACCUCCAAUACAUCCCACCAUAUGAUGAUGCCUGAAGAGCCUUGGAUUUUUG [C13G G60U G93A C104U U129A] | -4.29
GACCAAUCUGCCUUCAGAGCUCGAGAACCUCUUCGGAUGCAGAGGAGGCAGGCUUUGGUGGCGCGAUAGCGCCAACGUCCUCAACCUCCAAUGCAUCCCACCACAUGAUGAUGCCUGAAGAGCCUUGGUUUUUUG [C13U A29C C56U] | -2.25
GACCAAUCUGCCGUCAGAGCUCGAGAACAUCUUCGGAUGCAGAGGAGGCAGGCUUCGGUGGCGCGAUAGCGCCAACGUCCUCAACCUCCAAUGCAUCCCACCACACGAUGAUGCCUGAAGAGCCUUGGUUUUUUG [C13G U106C] | -2.21
GACCAAUCUGCCGUCAGAGCUCGAGAACAUCUUCGGAUGCAGAGGAGGCAGGCUUCGGUGGCGCGAUAGCGCCAACGUCCUCAACCUCCAAUGCAUCCCACCACAUGAUGAAACCUGAAGAGCCUUGGUUUUUUG [C13G U112A G113A] | -2.13
GACCAAUCUGCCGUCAGAGCUCGAGAACAUCUUCGGAUGCAGAGGAAGCAGGCCUCGGUGGCGCGAUAGCGCCAACGUCCUCAACCUCCAAUGCAUCCCACCACAUGAUGAUGCCUGAAGAGCCUUGGUUUUUUG [C13G G47A U54C] | -2.54
GACCAAUCUGCCGUCAGAGCUCGAGAACAUCUUCGGAUGCAGAGGAGGCAGGCUUCGGUGGCGCGAUACCGCCAACGUCCUCAACCUCCAAUGUAUCCCACCACAUGAUGAUGCUUGAAGAGCCUUGGUUUUUUA [C13G G69C C94U C115U G135A] | -3.43
GACCAAUCUGCCGUCAGAGCUCGAGAACAUCUUCGGAUGCAGAGGAGACAGGCUUCGGUGGCGCGAUAGCGCAAACGUCCUCAACCUCCAAUGCAUCCCACCACAUGAUGAUGCCUGAAGAGCCUUGGUUUUUUG [C13G G48A C73A] | -1.93
GACCAAUCUGCCGUCAGAGCUCGAGAACAUCUUCGGAUGCAGAGGAGGCAAGCUUCGGUGGCGCGAUAGCGCCAACGUCCUCAACCUCCAAUGCAUCCCACCACAUGAUGAUGCCUGAAGAGCCUUGGUUUUUUG [C13G G51A] | -4.69
GACCAAUCUGCCGUCAGAGCUCGAGAACAUCUUCGGAUGCAUAGGAGGCAGGAUUCGGUGGCGCGAUAGCGCCAACGUCCUCAACCCUCAAUGCAUCCCACCACAUGAUGAUGCCUGAAGCGACUUGGUUUUUUG [C13G G42U C53A U87C C88U A121C C123A] | -0.648
GACCAAUCUGCCGUCAGAGCUCGAGAACAUCUUCGGAUGCAGAGUAGGCAGGCUUCGGUGGCGCGAUAGCGCCAACGUCCUUAACCUCCAAUGCAUCCCACCACAUGAUGAUACCUGAAGAGCCUUGGUUUUUUG [C13G G45U C82U G113A] | -2.94
GACCAAUCUGCCUUCAGCGCUCGAGAACAUCUUCGGAUGCAGAGGAGGCAGGCUGCGGUGGCGCGAUAGCGCCAACGUCCUCAACCUCCAAUUCAUCCCACCACAUGAUGAUGCCUGAAGAGCCUUGGUUUUUUG [C13U A18C U55G G93U] | -2.65
GACCAAUCUGCCGUCAGAGCUCGAGAACAUCUUCGGAUGCAGAGGAGGCAGGCUUCGGUGGCUCGAUAGCGCCAACGUCCUCAACCUCCAAUGCAUCCCACAACAUGAUGAUGCCUGAAGAGCCUUGGUUUUUUG [C13G G63U C102A] | -5.61
GACCAAUCUGCCGUCAGAGCUCGAGAACAUCUUCGGAUGCAGAGGAGGCAGGCUUCGGUGGCGCGAUAACGCCAACGUCCUCAACCUCCAAUGCAUCCCACCACAUGAUGAUGCCUGAAGAGCCUUGGUUUAUUG [C13G G69A U132A] | -3.7
GACCAAUCUGCCGUCAGAGCUCGAGAACAUCUUCGGAUGCAGAGGAGGCAGGCUUCGGUGGCGCGAUAGCCCCAACGUCCUCAGCCUCCAAUGCAUCCCACCAAAUGAGGAUGCCUUAAGAGCAUUGGUGUUUUG [C13G G71C A84G C104A U109G G117U C124A U130G] | -6.92
GACCAAUCUGCCGUCAGAGCUCGAGAACAUCUUCGGAUGCAGAGGAGGCAGGCUUCGGUGGCGCGAUAGCGCCAACGUCCUCAACCUCCAAUGCAUCCCACCACAUGAUGAUACCUGAAGAGCCUUGGUUUUUUG [C13G G113A] | -2.45

Variant | polymerase ribozyme fitness (log ratio)
GACCAAUCUGCCGUCAGAGCUCGAGAACAUCUUCGGAUGCAGAGGAGGCAGUCUUCGGUGGCGCGAUAGCGCCAGCGUCCUCAACCUCCAAUGCAUCCCACCACAUGAUGAUGCCUGAAGAGCCUUGGUUUUUUG [C13G G52U A75G] | -3.6
GACCAAUCUGCCUUCAGAGCUCGAGAUCAUCUUCGGAUGCAGAGGAGGCAGGCUUCGGUGGCGCGAUAGCGCCAACGUACUCAACCUCCAAUGCAUCCCACCACAUGAUGAUGCCUGAAGAGCCUUGGUUUUUUG [C13U A27U C79A] | -3.24
GACCAAUCUGCCGUCAGAGCUCGAGAACAUCUUCGGAUGCAGAGGAUGUAGGCUUCGGUGGCGCGAUAGCGCAAACGUCCUCAACCUCCAAUGCAUCCCACCACAUGAUGAUGCCUGAAGAGCCUUGGUUUUUUG [C13G G47U C49U C73A] | -3.52
GACCAAUCUGCCGUCAGAGCUCGAGAACAUCUUCGGAUGCAGAGGAGGCAGGCUUCGGUGGCGCGAUAGCACCAACGUCCUCAACCUCCAAUGCAUCCCACCACAUGAUGAUGCCUGAAGAGCCUUGUUUUUUUG [C13G G71A G128U] | -4.42
GACCAAUCUGCCGUCAGAGCACGAGAACAUCUUCGGAUGCAGAGGAGGCAGCCUUCGGUGUCGCGAUAGCGCCAACGUCCUCAACCUCCACUGCAUCCCACCACAUGAUGAUGCCUGAACAGCCUUGGUUUUUUG [C13G U21A G52C G61U A91C G120C] | -2.36
GACCAAUCUGCCGUCAGAGCUCGAGAACAUCUUCGGAUGCAGAGGAGGCAGGCUUCGGUGGCGCGAUAGCGCCAACGGCCUCAACCUCCAAUGCAUCCCACCACAUGAUGAUGCCUGAAGAGCCUUGGUUUUUUG [C13G U78G] | -2.05
GACCAAUCUGCCGUCAGAGCUCGAGAACAUCUUCGGAUGCAGAGGAGGCAGGCUUCGGUGGCGCGAUAGCGCCAACGUCCUCAACCUCCAAUGCAUCCCACCACAUGAUGAUGCCUGAAGAGCCUUGCUUUUUUG [C13G G128C] | -3.48
GACCAAUCUGCCGUCAGAGCUCGAGAACAUCUUCGGAUGCAGAGGAGGCAGGCUUCGGUGGCGCGAUAGCGCCAACGUCCUCAACCUCCAAUGCAUCCCACCACAUGAUGAUGCCUGAAGAGCCUUGGUUUAUUG [C13G U132A] | -1.5
GACCAAUCUGCCGUCAGAGCUCGAGAACAUCCUCGGAUGCAGAGGAGGCAGGCUUCGGUGGCGCGAUAGCGCCAACGUCCUCAAGCUCCAAUGCAUCCCACCACAUGAUGAUGCCUGAAGAGCCUUGGUUUUUUG [C13G U32C C85G] | -4
GACCAAUCUGCCGUCAGAGCUCGAGAACAUCUUCGGAUGCAGAGGAGUCAGGAUUCGGUGGCGCGAUAGCGCCAACGUCCUCAACCUCCAAUGCAUCCCACCACAUGAUGAUGCCUGAAGAGCCUUGGUUUUUUG [C13G G48U C53A] | -2.34
GACCAAUCUGCCGUCAGAGCUCGAGAACAUCUUCGGAUGCAGAGGAGGCAGGCUUCGGUGGCGCGAUAGCGCCAACGUCCCCAACCUCCAAUGCAUCCCACCACAUGAUGAUGCCUGAAGAGCCUUGGUUUUUUG [C13G U81C] | -1.96
GACCAAUCUGCCGUCAGAGCUCGAGAACAUCUUCGGAUGCAGAGGAGGCAGGCUUCGGAGGCGCGAUAGCGCCAACGUCCUCAACCUCCAUUGCAUCCCACCACAUGAUGAUGCUUGAAGAGCCUUGGUUUUUUG [C13G U59A A91U C115U] | -4.42
GACCAAUCUGCCUUCAGCGCUCGAGAACAUCUUCGGCUGCAGAGGAGGUAGGCUUCGGUGGCGCGAUAGCGCCAACGUCCUCAACCUCCAAUGCAUCCCACCACAUGAUGAUGCCUGAAGCGCCUUGGUUUUUUG [C13U A18C A37C C49U A121C] | -2.39
GACCAAUCUGCCGUCAGAGCUCGAGAACAUCUUCGGAUGCAGAGGAGGCAGGCUUCGGUGGCGCGAUAACGCCAACGUCCUCAACCUCCAAUGCAUCCCACCACAUGAUGAUGCCUGAAGAGCCUUGGUUUUUUG [C13G G69A] | -3.66
GACCAAUCUGCCGUCAGAGCUCGAGAACAUCUUCGGAUGCAGAGGAUGCAGGCUUCGGUGGCGCGAUAGCGCCAACGUCCUCAACCUCCAAUGCAUCCCACCACAUGAUGAUGCCUGAAGAGCCUUGGUUUUUUG [C13G G47U] | -3.12
GACCAAUCUGCCGUCAGAGCUCGAGAACAUCUUCGGAUGCAGAGGAGGCAGGCUUCGGUGGCCCGAUAGAGCCAACGUCCUCAACCUCCAAUGCAUCCCACCACAUGAUGAUGCCUGAAGAGCAUUGGUUUUUUG [C13G G63C C70A C124A] | 0.905
GACCAAUCUGCCGUCAGAGCUCGAGAACAUCUUCGGAUGCAGAGGAGGCAUGCUUCGGUGGCGCGAUAGCGGCAACGUCCUCAACCUCCAAUGCAUCCCACCACAUGAUGCUGCCUGAAGAGCCUUGGUUUUUUG [C13G G51U C72G A111C] | -6.15
GACCAAUCUGCCGUCAGAGCUCGAGAACAUCUUCGGAUGCAGAGGAGGCAGGCUUCGGUGGCGCGAUAGCGCCAACGUCCUCAACCUCCAAUGCAUCCCACCACAUGAUGAUGCCUGAAGAGCCUUAGUUUUUUG [C13G G127A] | -2.49
GACCAAUCUGCCGUCAGAGCUCGAGAACAUCUUCGGAUGCAGAGGAGGCAGUCUUCGGUGGCGCGAUAGUGCCAACGUCCUCAACCUCCAAUGCAUCCCACCACAUGAUGAUGCCUGAAGAGACUUGGUUUUUUG [C13G G52U C70U C123A] | -1.13
GACCAAUCUGCCGUCAGAGCUCGAGAACAUCUUCGGAUGCAGAGGAGGCAGGCUUCGGUGGCGCGAUAGCUCCAACGUCCUCAACCUCCAAUGCAUCCCACCACAUGAUGACGCCUGAAGAGCCUUGGUUUUUUG [C13G G71U U112C] | -0.426
GACCAAUCUGCCGUCAGAGCUCGAGAACAUCUUCGGAUGCAGAGGAGUCAGGCUUCGGUGGCGCGAUAGCGCCAACGUCCUCAACCUCCAAUGCAUCCCACCACAUGAUGAUGCCUGAAGAGCCUUGGUUUUUUG [C13G G48U] | -2.21
